Results from PMC10542344 (Communications Biology, 2023).

Tests used:
[1] = target: T1, human IL-17A (recombinant) (human, UniProt Q16552); experiment: cell-based or functional assay
[2] = target: T2, insulin (Homo sapiens (assumed), UniProt P01308); experiment: ELISA; polyspecificity assay; plates coated with 5 μg/ml antigen, blocked with PBS 0.5% BSA; 100 nM antibody 1 h at RT; anti-human Fc-HRP; details: both partners purified
T2 construct: insulin B chain; insulin A chain

[3] = target: T3, human IL-2 (Homo sapiens, UniProt P60568); experiment: as above; details: both partners purified
T3 construct: human interleukin-2; also called hIL-2

[4] = target: T4, hTNFR2 (Homo sapiens, UniProt P20333); experiment: as above; details: both partners purified
T4 construct: human TNF receptor 2

[5] = target: T5, BSA (Bos taurus, UniProt P02769); experiment: as above; details: both partners purified
T5 construct: bovine serum albumin, printed only as BSA; a BSA coating is not described

[6] = target: T1, human IL-17A (recombinant); experiment: SPR; Biacore T100, CM5 chip; tested antibody captured on anti-human IgG to about 500 RU; IL-17A analyte in PBS 0.05% tween, two- or three-fold dilutions, multi-cycle kinetics; details: both partners purified
[7] = target: T6, IL-1β (used in the yeast display FACS analysis) (Homo sapiens, UniProt P01584); experiment: flow cytometry on cells; scFv displayed on yeast EBY-100; incubated with soluble antigen (biotinylated human IL-17A in PBS 0.1% BSA, 1 h), labelled with anti-Myc-FITC (expression) and streptavidin-APC (binding); details: one partner purified
T6 construct: interleukin-1 beta; Species is said only of the IL-1β of the crystal (human)

[8] = target: T7, biotinylated human IL-17A (Homo sapiens, UniProt Q16552, biotin (site not stated)); experiment: as above; details: one partner purified
T7 construct: human interleukin-17A; also called hIL-17A; biotinylated IL-17A

[9] = target: T8, recombinant human IL-1β (Homo sapiens); experiment: crystal structure; AAL160 Fab with a 1.5-fold excess of recombinant human IL-1β, complex purified by SEC; 3.30 Å; details: both partners purified
T8 construct: human interleukin-1 beta; also called IL-1b

T2 sequence (P01308 whole entry, looked up): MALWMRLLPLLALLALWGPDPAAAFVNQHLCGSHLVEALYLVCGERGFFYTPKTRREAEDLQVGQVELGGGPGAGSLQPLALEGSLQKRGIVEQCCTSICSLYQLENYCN
T4 sequence (P20333 23-461): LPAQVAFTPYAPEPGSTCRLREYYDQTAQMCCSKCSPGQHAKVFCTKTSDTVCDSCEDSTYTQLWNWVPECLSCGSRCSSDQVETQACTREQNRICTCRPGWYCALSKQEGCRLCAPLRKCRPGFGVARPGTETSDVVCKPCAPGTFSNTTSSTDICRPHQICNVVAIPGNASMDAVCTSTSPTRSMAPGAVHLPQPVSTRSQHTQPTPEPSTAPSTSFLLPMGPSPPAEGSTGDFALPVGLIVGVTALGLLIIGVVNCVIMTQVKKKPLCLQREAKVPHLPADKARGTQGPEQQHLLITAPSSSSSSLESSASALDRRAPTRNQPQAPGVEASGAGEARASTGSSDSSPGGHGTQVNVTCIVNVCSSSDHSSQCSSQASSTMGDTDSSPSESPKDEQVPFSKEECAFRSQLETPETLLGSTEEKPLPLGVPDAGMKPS
T5 sequence (P02769 25-607): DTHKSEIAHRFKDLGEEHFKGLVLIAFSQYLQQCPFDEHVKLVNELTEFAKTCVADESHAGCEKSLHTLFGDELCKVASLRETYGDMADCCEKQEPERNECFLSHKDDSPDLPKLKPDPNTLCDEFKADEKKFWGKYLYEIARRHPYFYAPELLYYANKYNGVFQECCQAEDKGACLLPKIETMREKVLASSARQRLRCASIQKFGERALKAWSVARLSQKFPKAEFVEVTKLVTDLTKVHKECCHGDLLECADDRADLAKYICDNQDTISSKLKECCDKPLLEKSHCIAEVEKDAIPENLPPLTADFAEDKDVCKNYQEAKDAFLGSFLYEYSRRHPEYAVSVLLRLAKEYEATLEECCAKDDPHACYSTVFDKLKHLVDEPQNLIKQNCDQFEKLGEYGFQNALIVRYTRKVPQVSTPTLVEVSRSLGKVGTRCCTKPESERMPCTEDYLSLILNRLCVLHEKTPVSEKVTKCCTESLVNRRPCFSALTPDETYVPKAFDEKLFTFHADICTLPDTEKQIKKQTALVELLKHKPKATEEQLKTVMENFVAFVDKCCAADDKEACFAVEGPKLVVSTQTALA
T3 sequence (P60568 21-153): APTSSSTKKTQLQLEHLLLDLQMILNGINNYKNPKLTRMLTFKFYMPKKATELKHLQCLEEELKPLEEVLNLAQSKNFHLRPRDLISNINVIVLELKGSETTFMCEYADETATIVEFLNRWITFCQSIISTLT
T1 sequence (Q16552 24-155): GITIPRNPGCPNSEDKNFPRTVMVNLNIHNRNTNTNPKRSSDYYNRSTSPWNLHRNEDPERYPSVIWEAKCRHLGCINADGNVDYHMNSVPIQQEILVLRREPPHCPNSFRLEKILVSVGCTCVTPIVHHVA
T7 sequence (Q16552 24-155): as above

Binder | IC50 of inhibition of IL-17A dependent IL-6 secretion by BJ fibroblasts (1 nM IL-17A; blocks IL-17A binding to IL-17RA on the cells) [1] | binding result [2] | binding result [3] | binding result [4] | binding result [5] | Kd [6] | binding result [7] | binding result [8] | binding result [9]
BDG11.001 (clone 11.4C_11.001 as soluble human IgG1) (antibody, V domains shown, as the VH of m6 (clone 11.4C_11.001); the same heavy chain stands in 11.003 (PDB 7Z2M); changes are against the VH of AAL160; human IgG1 heavy-chain constant region, from the plasmid pSF-CMV-HuIgG1_HC; as the VL of m6 (clone 11.4C_11.001); has W30, Y93, W94; the light chain of 11.003 in PDB 7Z2M differs from it at position 30 (Phe for Trp); as in the light chain of 11.003 in PDB 7Z2M; IgG1; also …) VH: EVQLVQSGAEVKKPGESLKISCKGSGYSFTSYWIGWVRQMPGKGLEWMGIIYPSDSDTRYSPSFQGQVTISADKSISTAYLQWSSLKASDTAMYYCARYPNYGAFDIWGQGTMVTVSS VL: EIVLTQSPATLSLSPGERATLSCRASQSVWSYLAWYQQKPGQAPRLLIYDASNRATGIPARFSGSGSGTDFTLTISSLEPEDFAVYYCQQYFYWGWPFGQGTKLEIK | 4.8 nM | no binding (tested: 100 nM antibody) | no binding (tested: 100 nM antibody) | no binding (tested: 100 nM antibody) | no binding (tested: 100 nM antibody) | 0.75 nM |  |  | 
BDG11.003 (human IgG1) (antibody, V domains shown, as the VH of m7 (BDG11.001); human IgG1 heavy-chain constant region, from the plasmid pSF-CMV-HuIgG1_HC; as the VL of m7 (BDG11.001) with W30F; that 11.003 is the W30F variant follows from the sentence that 11.003 has Phe30 in L1 where AAL160 has Ser; light-chain numbering; IgG1; seven mutations against AAL160; source: Expi-CHO, transfected, purified from the supernatant (protein A beads); …) VH: EVQLVQSGAEVKKPGESLKISCKGSGYSFTSYWIGWVRQMPGKGLEWMGIIYPSDSDTRYSPSFQGQVTISADKSISTAYLQWSSLKASDTAMYYCARYPNYGAFDIWGQGTMVTVSS VL: EIVLTQSPATLSLSPGERATLSCRASQSVFSYLAWYQQKPGQAPRLLIYDASNRATGIPARFSGSGSGTDFTLTISSLEPEDFAVYYCQQYFYWGWPFGQGTKLEIK | 33.9 nM | no binding (tested: 100 nM antibody) | no binding (tested: 100 nM antibody) | no binding (tested: 100 nM antibody) | no binding (tested: 100 nM antibody) |  |  |  | 
BDG11.007 (human IgG1) (antibody, V domains shown, as the VH of m7 (BDG11.001); human IgG1 heavy-chain constant region, from the plasmid pSF-CMV-HuIgG1_HC; as the VL of m7 (BDG11.001) with one substitution; light-chain numbering; as in the light chain of 11.003 in PDB 7Z2M; IgG1; single mutant of BDG11.001; source: Expi-CHO, transfected, purified from the supernatant (protein A beads); copies: 2 + 2) VH: EVQLVQSGAEVKKPGESLKISCKGSGYSFTSYWIGWVRQMPGKGLEWMGIIYPSDSDTRYSPSFQGQVTISADKSISTAYLQWSSLKASDTAMYYCARYPNYGAFDIWGQGTMVTVSS VL: EIVLTQSPATLSLSPGERATLSCRASQSVWSYLAWYQQKPGQAPRLLIYDASNRATGIPARFSGSGSGTDFTLTISSLEPEDFAVYYCQQYFNWGWPFGQGTKLEIK | 286 nM | no binding (tested: 100 nM antibody) | no binding (tested: 100 nM antibody) | no binding (tested: 100 nM antibody) | no binding (tested: 100 nM antibody) |  |  |  | 
BDG11.006 (human IgG1) (antibody, V domains shown, as the VH of m7 (BDG11.001); human IgG1 heavy-chain constant region, from the plasmid pSF-CMV-HuIgG1_HC; as the VL of m7 (BDG11.001) with one substitution; light-chain numbering; as in the light chain of 11.003 in PDB 7Z2M; IgG1; single mutant of BDG11.001; source: Expi-CHO, transfected, purified from the supernatant (protein A beads); copies: 2 + 2) VH: EVQLVQSGAEVKKPGESLKISCKGSGYSFTSYWIGWVRQMPGKGLEWMGIIYPSDSDTRYSPSFQGQVTISADKSISTAYLQWSSLKASDTAMYYCARYPNYGAFDIWGQGTMVTVSS VL: EIVLTQSPATLSLSPGERATLSCRASQSVWSYLAWYQQKPGQAPRLLIYDASNRATGIPARFSGSGSGTDFTLTISSLEPEDFAVYYCQQYFYNGWPFGQGTKLEIK | 50.5 nM | no binding (tested: 100 nM antibody) | no binding (tested: 100 nM antibody) | no binding (tested: 100 nM antibody) | no binding (tested: 100 nM antibody) |  |  |  | 
BDG11.004 (human IgG1) (antibody, V domains shown, as the VH of m7 (BDG11.001); human IgG1 heavy-chain constant region, from the plasmid pSF-CMV-HuIgG1_HC; as the VL of m7 (BDG11.001) with one substitution; light-chain numbering; as in the light chain of 11.003 in PDB 7Z2M; IgG1; single mutant of BDG11.001; source: Expi-CHO, transfected, purified from the supernatant (protein A beads); copies: 2 + 2) VH: EVQLVQSGAEVKKPGESLKISCKGSGYSFTSYWIGWVRQMPGKGLEWMGIIYPSDSDTRYSPSFQGQVTISADKSISTAYLQWSSLKASDTAMYYCARYPNYGAFDIWGQGTMVTVSS VL: EIVLTQSPATLSLSPGERATLSCRASQSVSSYLAWYQQKPGQAPRLLIYDASNRATGIPARFSGSGSGTDFTLTISSLEPEDFAVYYCQQYFYWGWPFGQGTKLEIK | 163 nM | no binding (tested: 100 nM antibody) | no binding (tested: 100 nM antibody) | no binding (tested: 100 nM antibody) | no binding (tested: 100 nM antibody) |  |  |  | 

Next, values leading:

IC50 of inhibition of IL-17A dependent IL-6 secretion by BJ fibroblasts (1 nM IL-17A; blocks IL-17A binding to IL-17RA on the cells) [1] | binding result [2] | binding result [3] | binding result [4] | binding result [5] | Kd [6] | binding result [7] | binding result [8] | binding result [9] | Binder
 |  |  |  |  |  | no binding | binds |  | clone 11.1_C5 scFv displayed on yeast (scFv, V domains shown, as the VH of m1 (AAL160) with changes; three repeats of the G4S linker between VH and VL; as the VL of m1 (AAL160) with changes; First-generation clone from library A_11.1; source: yeast surface display, EBY-100, induced with galactose) VH: EVQLVQSGAEVKKPGESLKISCKGSGYSFTSYWIGWVRQMPGKGLEWMGIIYPSDSDTRYSPSFQGQVTISADKSISTAYLQWSSLKASDTAMYYCARYTNYGNFDIWGQGTMVTVSS VL: EIVLTQSPATLSLSPGERATLSCRASQSVWWYLAWYQQKPGQAPRLLIYDASNRATGIPARFSGSGSGTDFTLTISSLEPEDFAVYYCQQGFYWPWPFGQGTKLEIK
 |  |  |  |  |  | no binding | binds |  | clone 11.1_C3 scFv displayed on yeast (scFv, V domains shown, as the VH of m1 (AAL160) with changes in CDR H3; numbers count on the scFv; three repeats of the G4S linker between VH and VL; as the VL of m1 (AAL160) with changes in CDR L1 and L3; First-generation clone from library A_11.1; nine mutations against AAL160, eight in H3 and L3 and one in L1; source: yeast surface display, EBY-100, induced with galactose) VH: EVQLVQSGAEVKKPGESLKISCKGSGYSFTSYWIGWVRQMPGKGLEWMGIIYPSDSDTRYSPSFQGQVTISADKSISTAYLQWSSLKASDTAMYYCARYTNYGNFDIWGQGTMVTVSS VL: EIVLTQSPATLSLSPGERATLSCRASQSVWSYLAWYQQKPGQAPRLLIYDASNRATGIPARFSGSGSGTDFTLTISSLEPEDFAVYYCQQGFYWPWPFGQGTKLEIK
 |  |  |  |  |  |  | binds |  | clone 11.4_C13 scFv displayed on yeast (scFv, V domains shown, as the VH of m1 (AAL160) with changes; has no T100P; three repeats of the G4S linker between VH and VL; as the VL of m1 (AAL160) with changes; source: yeast surface display, EBY-100, induced with galactose) VH: EVQLVQSGAEVKKPGESLKISCKGSGYSFTSYWIGWVRQMPGKGLEWMGIIYPSDSDTRYSPSFQGQVTISADKSISTAYLQWSSLKASDTAMYYCARYTNYEAFDIWGQGTMVTVSS VL: EIVLTQSPATLSLSPGERATLSCRASQSVWSYLAWYQQKPGQAPRLLIYDASNRATGIPARFSGSGSGTDFTLTISSLEPEDFAVYYCQQSFYWPFPFGQGTKLEIK
 |  |  |  |  |  | binds | no binding |  | AAL160 scFv displayed on yeast (scFv, V domains shown, VH of AAL160; also held by the deposited AAL160 Fab structures; three repeats of the G4S linker between VH and VL; VL of AAL160; scFv in heavy to light-chain orientation; VH 99% identical to IGHV5-51*01, VL 100% identical to IGKV3-11*01; also called template antibody; anti-IL-1β antibody; source: yeast surface display, EBY-100, induced with galactose) VH: EVQLVQSGAEVKKPGESLKISCKGSGYSFTSYWIGWVRQMPGKGLEWMGIIYPSDSDTRYSPSFQGQVTISADKSISTAYLQWSSLKASDTAMYYCARYTNWDAFDIWGQGTMVTVSS VL: EIVLTQSPATLSLSPGERATLSCRASQSVSSYLAWYQQKPGQAPRLLIYDASNRATGIPARFSGSGSGTDFTLTISSLEPEDFAVYYCQQRSNWMFPFGQGTKLEIK
 |  |  |  |  |  |  |  | binds | AAL160 Fab (Fab, V domains shown, Fab heavy-chain fragment of AAL160 after papain digestion; light chain of AAL160; also called parent AAL160 Fab; source: papain digestion of AAL160 at 37 °C, Fab purified over Protein A Sepharose Fast Flow) VH: EVQLVQSGAEVKKPGESLKISCKGSGYSFTSYWIGWVRQMPGKGLEWMGIIYPSDSDTRYSPSFQGQVTISADKSISTAYLQWSSLKASDTAMYYCARYTNWDAFDIWGQGTMVTVSS VL: EIVLTQSPATLSLSPGERATLSCRASQSVSSYLAWYQQKPGQAPRLLIYDASNRATGIPARFSGSGSGTDFTLTISSLEPEDFAVYYCQQRSNWMFPFGQGTKLEIK
 |  |  |  |  |  |  | binds |  | clone 11.4_C12 scFv displayed on yeast (scFv, V domains shown, as the VH of m1 (AAL160) with changes in CDR H3; three repeats of the G4S linker between VH and VL; as the VL of m1 (AAL160) with changes; has W30, Y93 and W94 (light-chain numbering); also called 114_R5_C12; source: yeast surface display, EBY-100, induced at 37 to 40 °C) VH: EVQLVQSGAEVKKPGESLKISCKGSGYSFTSYWIGWVRQMPGKGLEWMGIIYPSDSDTRYSPSFQGQVTISADKSISTAYLQWSSLKASDTAMYYCARYPNYGAFDIWGQGTMVTVSS VL: EIVLTQSPATLSLSPGERATLSCRASQSVWSYLAWYQQKPGQAPRLLIYDASNRATGIPARFSGSGSGTDFTLTISSLEPEDFAVYYCQQYFYWSWPFGQGTKLEIK
